Reference: patent US20240343809A1 (EXCELMAB, published 2024)
Changes are numbered by the printed parent chain.

B1: B7-H3 antibody 5D9 (antibody, V domains shown)
VH: QVQLVQSGAEVKKPGSSVKVSCKASGGTFSNYAINWVRQAPGQGLEWMGGIIPLFGTANYAQKFQGRVTITADESTSTAYMELSSLRSDDTAVYYCARDQVVATSGVNFGMDVWGQGTTVTVSS
VL: DIQMTQEPSLTTSPGGTVTLTCRSSTGAVTTSNYANWVQEKPGQAPRGLIGGTNKRAPGTPARFSGSLIGGKAALTITGVQPEDEAIYFCALWYSNLWVFGGGTKLEIK
notes: Expressed as full antibody (heavy and light chain) in 293F cells, protein A purified, detected with anti-human IgG
B2: affinity-matured B7-H3 antibody 42A1 (antibody, V domains shown)
VH: B1 VH with F29G, S30G, N31I, A33L
VL: B1 VL
notes: Full antibody expressed in 293F cells, protein A purified; VH assembled from the framework and CDR entries
B3: affinity-matured B7-H3 antibody 43G5 (antibody, V domains shown)
VH: B1 VH with F29V, S30R, N31P, Y32A, A33L
VL: B1 VL
notes: as for B2
B4: affinity-matured B7-H3 antibody 47C8 (antibody, V domains shown)
VH: B1 VH with Q100I, V101E, A103M, T104A
VL: B1 VL
notes: as for B2
B5: affinity-matured B7-H3 antibody 48A6 (antibody, V domains shown)
VH: B1 VH with F29R, S30P, N31P, Y32A, A33L
VL: B1 VL
notes: as for B2
B6: affinity-matured B7-H3 antibody 48B12 (antibody, V domains shown)
VH: B1 VH with F29T, S30G, N31R, A33L
VL: B1 VL
notes: as for B2
B7: affinity-matured B7-H3 antibody 48D10 (antibody, V domains shown)
VH: B1 VH with F29R, S30P, N31A, Y32A, A33L
VL: B1 VL
notes: as for B2
B8: affinity-matured B7-H3 antibody 48E9 (antibody, V domains shown)
VH: B1 VH with F29G, S30G, N31A, A33L
VL: B1 VL
notes: as for B2
B9: affinity-matured B7-H3 antibody 48G2 (antibody, V domains shown)
VH: B1 VH with F29S, S30R, N31P, Y32V, A33L
VL: B1 VL
notes: as for B2
B10: affinity-matured B7-H3 antibody 49B2 (antibody, V domains shown)
VH: B1 VH with L54N, G56H, T57S, A58S
VL: B1 VL
notes: as for B2
B11: affinity-matured B7-H3 antibody 49C3 (antibody, V domains shown)
VH: B1 VH with L54N, G56E, T57S, A58V
VL: B1 VL
notes: as for B2
B12: affinity-matured B7-H3 antibody 49C7 (antibody, V domains shown)
VH: B1 VH with L54N, G56Y, T57S, A58V
VL: B1 VL
notes: as for B2
B13: affinity-matured B7-H3 antibody 49C8 (antibody, V domains shown)
VH: B1 VH with L54K, G56R, T57S, A58Q
VL: B1 VL
notes: as for B2
B14: affinity-matured B7-H3 antibody 49D12 (antibody, V domains shown)
VH: B1 VH with L54R, G56A, T57S, A58R
VL: B1 VL
notes: as for B2
B15: affinity-matured B7-H3 antibody 49E1 (antibody, V domains shown)
VH: B1 VH with L54V, G56R, T57S, A58V
VL: B1 VL
notes: as for B2
B16: affinity-matured B7-H3 antibody 49F6 (antibody, V domains shown)
VH: B1 VH with L54G, G56D, T57A, A58V
VL: B1 VL
notes: as for B2
B17: affinity-matured B7-H3 antibody 49H5 (antibody, V domains shown)
VH: B1 VH with L54D, G56N, T57S
VL: B1 VL
notes: as for B2
B18: affinity-matured B7-H3 antibody 50A1 (antibody, V domains shown)
VH: B1 VH with A103P, T104L
VL: B1 VL
notes: as for B2
B19: affinity-matured B7-H3 antibody 50A4 (antibody, V domains shown)
VH: B1 VH with Q100E, A103V, T104G
VL: B1 VL
notes: as for B2
B20: affinity-matured B7-H3 antibody 50A6 (antibody, V domains shown)
VH: B1 VH with Q100A, A103P, T104N
VL: B1 VL
notes: as for B2
B21: affinity-matured B7-H3 antibody 50A11 (antibody, V domains shown)
VH: B1 VH with A103P, T104R
VL: B1 VL
notes: as for B2
B22: affinity-matured B7-H3 antibody 50B10 (antibody, V domains shown)
VH: B1 VH with Q100V, V101E, A103F, T104N
VL: B1 VL
notes: as for B2
B23: affinity-matured B7-H3 antibody 50E3 (antibody, V domains shown)
VH: B1 VH with Q100V, V101N, V102N, A103P, T104G
VL: B1 VL
notes: as for B2
B24: affinity-matured B7-H3 antibody 46D4 (antibody, V domains shown)
VH: B1 VH with Q100V, A103P, T104R
VL: B1 VL
notes: as for B2
B25: affinity-matured B7-H3 antibody 42F7 (antibody, V domains shown)
VH: B1 VH with F29R, S30P, N31A, Y32A, A33L
VL: B1 VL
notes: as for B2
B26: affinity-matured B7-H3 antibody 43D4 (antibody, V domains shown)
VH: B1 VH with F29S, S30G, N31V, Y32A, A33L
VL: B1 VL
notes: as for B2
B27: affinity-matured B7-H3 antibody 43G11 (antibody, V domains shown)
VH: B1 VH with F29L, S30R, N31P, Y32V, A33L
VL: B1 VL
notes: as for B2
B28: affinity-matured B7-H3 antibody 44C5 (antibody, V domains shown)
VH: B1 VH with L54R, T57G, A58V
VL: B1 VL
notes: as for B2
B29: affinity-matured B7-H3 antibody 44F2 (antibody, V domains shown)
VH: B1 VH with L54G, G56Y, T57S, A58L
VL: B1 VL
notes: as for B2
B30: affinity-matured B7-H3 antibody 45B11 (antibody, V domains shown)
VH: B1 VH with L54M, F55W, G56Q, T57S, A58V
VL: B1 VL
notes: as for B2
B31: affinity-matured B7-H3 antibody 45F4 (antibody, V domains shown)
VH: B1 VH with G56R, T57S, A58S
VL: B1 VL
notes: as for B2
B32: affinity-matured B7-H3 antibody 46H7 (antibody, V domains shown)
VH: B1 VH with Q100R, V101F, V102T, A103P, T104R
VL: B1 VL
notes: as for B2
B33: affinity-matured B7-H3 antibody 46H9 (antibody, V domains shown)
VH: B1 VH with Q100R, V101E, V102A, A103R, T104E
VL: B1 VL
notes: as for B2
B34: affinity-matured B7-H3 antibody 47H4 (antibody, V domains shown)
VH: B1 VH with Q100F, V101D, V102A, A103P, T104G
VL: B1 VL
notes: as for B2
B35: Enoblituzumab (antibody, V domains shown)
VH: EVQLVESGGGLVQPGGSLRLSCAASGFTFSSFGMHWVRQAPGKGLEWVAYISSDSSAIYYADTVKGRFTISRDNAKNSLYLQMNSLRDEDTAVYYCGRGRENIYYGSRLDYWGQGTTVTVSS
VL: DIQLTQSPSFLSASVGDRVTITCKASQNVDTNVAWYQQKPGKAPKALIYSASYRYSGVPSRFSGSGSGTDFTLTISSLQPEDFATYYCQQYNNYPFTFGQGTKLEIKR

Molecular target: T1, human B7-H3 antigen, recombinant extracellular domain (ECD) (29-461) (human, UniProt Q5ZPR3 29-461)
T1 construct: range 29-461; Expressed in 293F cells as B7-H3-TEV-cFc-His fusion, cut with TEV protease and cleaned over a nickel column to give the human B7-H3 antigen; also called recombinant human B7-H3 antigen; hB7-H3
T1 sequence (looked up): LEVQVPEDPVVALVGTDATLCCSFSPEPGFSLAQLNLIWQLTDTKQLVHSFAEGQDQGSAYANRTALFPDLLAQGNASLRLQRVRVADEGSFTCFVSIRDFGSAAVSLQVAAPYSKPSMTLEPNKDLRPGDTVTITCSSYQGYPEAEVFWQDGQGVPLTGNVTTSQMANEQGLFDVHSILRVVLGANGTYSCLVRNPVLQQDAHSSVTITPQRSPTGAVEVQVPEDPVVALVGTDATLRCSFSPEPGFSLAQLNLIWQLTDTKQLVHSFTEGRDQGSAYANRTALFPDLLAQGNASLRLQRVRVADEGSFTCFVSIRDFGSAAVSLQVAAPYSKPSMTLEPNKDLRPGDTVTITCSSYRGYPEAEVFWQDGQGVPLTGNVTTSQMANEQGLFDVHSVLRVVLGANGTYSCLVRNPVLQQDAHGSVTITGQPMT
Assay: ELISA, coated human B7-H3 antigen
Experimental: (§1) The binding activity of the 5D9 to B7-H3 antigen was analyzed by ELISA. Human B7-H3 antigens were coated on the 96-well plate and placed at 4° C. overnight. The antibody 5D9 and controls were diluted to 10 μg/mL, followed by 4-fold dilution gradients to generate a total of 8 different concentrations. The diluted samples and the wells coated antigen were incubated for 1h. After washing, HRP (horseradish peroxidase)-labeled goat anti-human IgG (H+L) secondary antibody was added to the plate and incubated for 1h. TMB (3,3′,5,5′-tetramethylbenzidine) solution was then added to each well after washing for chromogenesis. The absorbance was measured at OD₄₅₀ₙₘ with a microplate reader. Taking the logarithmic value of the sample concentration as the X-axis, and the absorbance OD₄₅₀ₙₘ value as the Y-axis, a dose-response curve was drawn to calculate the EC₅₀. The EC₅₀ represents the binding activity of the antibody to B7-H3 antigen. A negative control IgG group and a positive antibody Enoblituzumab control group were meanwhile set in the experiment.

| Binder | binding result |
| --- | --- |
| B1 | binds |

Molecular target: T1, human B7-H3 antigen, recombinant …
Assay: ELISA, coated human B7-H3 antigen
Remark: another data set of the same source
Experimental: as §1
ELISA was used to analyze the binding activity of affinity-matured variants to human B7-H3 antigen. By taking the logarithmic value of the sample concentration as the X-axis, and the absorbance OD₄₅₀ₙₘ value as the Y-axis, a dose-response curve was drawn to calculate the EC₅₀. The EC₅₀ represents the binding activity of the affinity-matured variants to B7-H3 antigen. A positive control Enoblituzumab and a negative control hIgG were set in the experiment.

| Binder | EC50 |
| --- | --- |
| B2 | 0.0354 µg/mL |
| B3 | 0.0279 µg/mL |
| B4 | 0.0426 µg/mL |
| B5 | 0.0272 µg/mL |
| B6 | 0.0259 µg/mL |
| B7 | 0.0251 µg/mL |
| B8 | 0.0438 µg/mL |
| B9 | 0.0303 µg/mL |
| B10 | 0.0286 µg/mL |
| B11 | 0.0245 µg/mL |
| B12 | 0.033 µg/mL |
| B13 | 0.0285 µg/mL |
| B14 | 0.0219 µg/mL |
| B15 | 0.0261 µg/mL |
| B16 | 0.0309 µg/mL |
| B17 | 0.0336 µg/mL |
| B18 | 0.0321 µg/mL |

| Binder | EC50 |
| --- | --- |
| B19 | 0.0274 µg/mL |
| B20 | 0.0247 µg/mL |
| B21 | 0.0339 µg/mL |
| B22 | 0.0278 µg/mL |
| B23 | 0.0418 µg/mL |
| B24 | 0.0283 µg/mL |
| B25 | 0.0278 µg/mL |
| B26 | 0.0303 µg/mL |
| B27 | 0.0411 µg/mL |
| B28 | 0.0639 µg/mL |
| B29 | 0.0464 µg/mL |
| B30 | 0.0265 µg/mL |
| B31 | 0.0219 µg/mL |
| B32 | 0.039 µg/mL |
| B33 | 0.147 µg/mL |
| B34 | 0.0244 µg/mL |
| B35 | 0.0255 µg/mL |
